Molecular target: T1, IRF4 DBD (human, UniProt Q15306 20-139)
T1 sequence: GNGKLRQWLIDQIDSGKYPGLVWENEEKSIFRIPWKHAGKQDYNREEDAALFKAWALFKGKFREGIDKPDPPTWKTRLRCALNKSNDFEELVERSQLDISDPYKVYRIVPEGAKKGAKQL
Assay: X-ray crystallography (native P/S SAD); three IRF4 DBD molecules on one ISRE; DNA:protein 1.2:1 mixed before crystallization; Crystallization complex: protein in 20 mM Tris-HCl pH 8, 500 mM NaCl, 0.5 mM TCEP (gel-filtration buffer); DNA:protein 1.2:1, 1 h at 277 K; crystallization conditions not in material
Details: protein: recombinant; tags: N-terminal 6xHis; chain copies: 3; 5' overhang 1 nt on each strand (A / T), 20 bp duplex

B1: ISRE 21-mer (dsDNA)
DNA 1: AATAAAAGAAACCGAAAGTAA
DNA 2: TTTACTTTCGGTTTCTTTTAT
B1: binds.
